According to patent US6558918:

Key:
Cdc2-AF/CyclinB1 complex = Cdc2-AF/CyclinB1 complex (UniProt P06493)
[1] = target: wild-type Cdc2/cyclin B1 complex (UniProt P06493)
[2] = target: kinase-deficient Cdc2 mutant (K-) complexed with cyclin B1 (UniProt P06493)
[3] = target: Cdc2-F15/CyclinB1 complex (UniProt P06493)
Chain of Cdc2-F15/CyclinB1 complex (P06493 whole entry, looked up, one chain of several): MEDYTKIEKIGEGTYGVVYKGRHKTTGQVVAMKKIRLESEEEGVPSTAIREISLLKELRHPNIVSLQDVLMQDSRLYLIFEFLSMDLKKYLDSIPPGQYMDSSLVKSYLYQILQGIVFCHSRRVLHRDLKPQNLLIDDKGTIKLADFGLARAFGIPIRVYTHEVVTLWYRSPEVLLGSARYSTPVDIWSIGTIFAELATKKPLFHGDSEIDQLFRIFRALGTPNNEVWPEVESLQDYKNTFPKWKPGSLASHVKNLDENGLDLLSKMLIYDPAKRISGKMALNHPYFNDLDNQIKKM

Chain of full-length human Wee1 with N-terminal Glu-Glu tag, expressed in Sf9 cells (chain, as listed by the source): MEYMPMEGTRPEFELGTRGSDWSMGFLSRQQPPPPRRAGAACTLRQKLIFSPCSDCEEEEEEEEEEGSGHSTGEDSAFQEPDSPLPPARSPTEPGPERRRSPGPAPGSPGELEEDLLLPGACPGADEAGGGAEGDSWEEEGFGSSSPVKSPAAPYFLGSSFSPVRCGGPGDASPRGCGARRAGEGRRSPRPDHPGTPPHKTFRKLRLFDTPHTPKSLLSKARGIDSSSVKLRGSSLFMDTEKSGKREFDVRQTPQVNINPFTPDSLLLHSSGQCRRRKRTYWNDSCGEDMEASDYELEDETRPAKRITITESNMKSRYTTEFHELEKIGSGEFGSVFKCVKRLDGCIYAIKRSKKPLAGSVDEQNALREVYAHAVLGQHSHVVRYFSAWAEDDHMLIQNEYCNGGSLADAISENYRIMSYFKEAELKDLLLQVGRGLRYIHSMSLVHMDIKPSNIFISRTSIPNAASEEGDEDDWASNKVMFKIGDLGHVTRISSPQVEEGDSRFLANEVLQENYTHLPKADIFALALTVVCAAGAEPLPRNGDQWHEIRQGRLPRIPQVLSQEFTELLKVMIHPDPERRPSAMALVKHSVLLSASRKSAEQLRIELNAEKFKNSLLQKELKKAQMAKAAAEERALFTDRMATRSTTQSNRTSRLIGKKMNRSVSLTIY
Chain of wild-type Cdc2/cyclin B1 complex (P06493 whole entry, looked up, one chain of several): as the sequence (P06493 whole entry, looked up, one chain of several) above
Chain of kinase-deficient Cdc2 mutant (K-) complexed with cyclin B1 (P06493 whole entry, looked up, change not shown, one chain of several): as the sequence (P06493 whole entry, looked up, one chain of several) above
Chain of Cdc2-AF/CyclinB1 complex (P06493 whole entry, looked up, one chain of several): as above

full-length human Wee1 with N-terminal Glu-Glu tag, expressed in Sf9 cells
histone H1 kinase activity in mixed Sf9 lysates (Cdc2-AF/CyclinB1 complex): Cdc2-F15/CyclinB1 and Cdc2-AF/CylinB1 complexes retained full activity in the presence of Wee1 lysates
histone H1 kinase activity of Cdc2/CyclinB1 in mixed Sf9 lysates [1]: the addition of Wee1 lysates effectively inhibited Cdc2/CyclinB1 kinase activation
phosphoamino acid analysis of 32P-labeled Cdc2 [2]: the Tyrosine 15 residue was readily phosphorylated by full-length Wee1
histone H1 kinase activity in mixed Sf9 lysates [3]: Cdc2-F15/CyclinB1 and Cdc2-AF/CylinB1 complexes retained full activity in the presence of Wee1 lysates
